# Experimental data reported in the nanobody polyreactivity screen of Harvey et al. (2022).
# Assay: yeast display, Sf9 membrane polyspecificity reagent, FACS + sequencing; frameworks hold sequencing errors
# In short: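 In a synthetic yeast display library (Saccharomyces cerevisiae BJ5465), nanobody expression was induced with galactose for 36–48 hours. FACS gates were set low and high (top ~1%) using anti-HA fluorescence for expression and streptavidin fluorescence for binding of the Sf9 membrane reagent. Each polyreactivity label is drawn from the gate of origin.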
row,Sequence,polyreactivity (PSR sort gate)
1,QVQLVESGGGLVQAGGSLRLSCAASGSIFFYYVMGWYRQAPGKERELVAVISSGGGSTYYADSVKGRFTISRDNAKNTVYLQMNSLKPEDTAVYYCAAGTYYKFYYWGQGTQVTVSS,high polyreactivity
2,QVQLVESGGGLVQAGGSLRLSCAASGSIFTPYVKGWYRQAPGKERELVAAISKRGTRTYYSDSVKGRFTISRDNAKNTVYLQMNSLKPEDTAVYYCNAAVDYGSEHDYWGQGTQVTVSS,high polyreactivity
3,QVQLVESVGGLVQAGGSLRLSSAASGRIFVFNAMGWYRQAPGKERELVAAISRRGGSTYYADSVKGRFTISRDNAKNTVYLQMNSLNPEVTAVYYCAAVYPDYSSARYDYWGQGTQVTVSS,high polyreactivity
4,QVQLEESGGGLVQAGGSLRLSCAASGRTFSRYAMGWYRQAPGKERELVAAIRGNSGNTYYADSVKGRFTISRDNAKNTVYLQMNSLKPEDTAVYYCAKPFNIWGQGTQVTVSS,high polyreactivity
5,QVQLVESGGGLVQAGGSLRLSCAASGIIFKDYAMGWYRQAPGKERELVAAISWNGDRTYYADSVKGRFTISRDNAKNTVYLQMNRLKPEDTAVYYCAARFGSCFNYWGQGTQVTVSS,high polyreactivity
6,QVQLVESGGGLVQAGGSLRLSCAASGRISYSYAMGWYRQAPGKERELVAAISYSGGTTYYADSVKGRFTISRDNAKNTVYLQMNSLKPEDTAVYYCAVDGYDTYGFNGYYIRSGYWGQGTQVTVSS,low polyreactivity
7,QVQLVESGGGLVQAGGSLRLSCAASGYTFAGYAMGWYRQAPGKERELVAAISSSGGRTYYADSVKGRFTISRDNAKNTVDLQINSLKPEDTAVYYCAAYVWAYYVPYNYGYWGQGTQVTVSS,high polyreactivity
8,QVQLVESGGGLVQAGGSLRLSCAASGRIFNSKAKGWYRQEPGKERELVAAISWSGGTTYYADSVKGRFTISRDNAKNTVYLQMNSLKPEDTAVYYCNADLWTSYFGRGDYWGQGTQVTVSS,low polyreactivity
9,QVQLVESGGGLVQAGGSLRLSCAASGFTFSKYTMGWYRQAPGQERELVARITRRGGSTYYADSVKGRFTISRDNAKNTVYLQMNSLKPEDTAVYYFAADVYAYNGEYDYWGQGTQVTVSS,high polyreactivity
10,QVQLVESGGGLVQAGGSLRLSCAASGSTFIFYAMGWYRQAPGKERELVAAISWSGGSTYYADSVKGRFTISRDNAKYTVYLQMNSLKPEDTAVYYCITLHRYSSERYDYWGQGTQVTVSS,high polyreactivity
11,QVQLVESGGGLVQAGGSLRLSCAASGRTFVNNAMGWYRQAPGKERELVAAISRSGGSTYYADSVKGRFTISRDNAKNTVYLQMNSLKPEDTAVYYCNKASNVRGYEYWGQGTQVTVSS,high polyreactivity
12,QVQLVESGGGLVQAGGSLRLSCAASGRIFGDNGMGWYRQAPGKERELVTYADSVKGRFTISRDNAKNTVYLQMNSLKAEDTAVYESNKDPPGFSGLDEIYWGQGTQVTVSS,low polyreactivity
13,QVQLEESGGGLVHAGGSLRLSCAASGFTCDNYAMGWYRQAPGKERELVAAISNSGGRTYYADSVKGRFTISRDNAKNTVYLQMNSLKPEDTAVYYCTIFKDFDYWGQGTQVTVSS,high polyreactivity
14,QVQLQESGGDLEQAGGSLRLSCTASGTISDVRDMGWYRQAPGKERELVATISYVTITYYSDSVKGRFTISRASEKHRVSADDEPETGRYRGVLLRYYWGLGTQVTVSS,low polyreactivity
15,QVQLVESGGGLVQAGGSLRLSSAASGLIYPVYAMGWYRQAPGKEREFVASIWRGGTTYYADSVKGRFTISRDNAKNTVYLQMTSLKPEDTAVYYCASRYYPRGLVFPFTKYDYWGLGTQVTVSS,high polyreactivity
16,QVQLVESGGGLVQAGGSLRLSCAASGSIFYRNAMGWYRQAPGKEREFVAAITLRGGSTYYADSVKGRFTISRDKAKNTVYLQMNSLKPEDTAVYYCNAGVGLTYVHDGDYWGQGTQVTVSS,low polyreactivity
17,QVQLVESVGGLVQAGGSLRLSCAASGRIFSYNAMGWYRQAPGKERELVAAITWRGGNTYYADSVKGRFTISRDNAKNTVYLQMNSLKPEDTAVYYCNAVGYSKYYVRTGREFDYWGQGTQVTVSS,high polyreactivity
18,QVQLVESGGGLVQAGGSLRLSCAASGRTSRSYTMGWYRQSPGKERELVAAITRGGRTYYADSVKGRFTISRDNAKNTVYLQMNSLKPEDTAVYYCATDRVQSYGYWGQGTQVTVSS,low polyreactivity
19,QVQLVESGGGLVQAGGSLRLSCAASGRIFPWYTMGWYRQAPGKERELVATIRGSGGSTHYADSVKGRFTISRDNAKNTVYLQMNSLKPEDTAVYYCATDRPRYRYQYKFDYWGQGTQVTVSS,low polyreactivity
20,QVQLVESGGGLVQAGGSLRLSCAASGSTLDFNAMGWYRQAPGKERELVAGISRDGGSTYYADSVKGRFTISRDNAKNTVYLQMNSLKPEDTAVYYCAVDFLDWYQDYYITYDYWGQGTQVTVSS,low polyreactivity
21,QVQLVESGGGLVQAGGSLRLSCAASGLIFKSNAMGWYRQAPGKERELVAAITRTGGSTYYADSVKGRFTISRDNAKNTVYLQMNSLKPEDTAVYYCAKVVGRWRSSWELDYWGQGTQVTVSS,high polyreactivity

row,Sequence,polyreactivity (PSR sort gate)
1,QVQLVESCGGLVQAGGSLRLSCAATGSTIRTYAMGWYRQAPGTERELVAAISRSGGRTYYADSVKGRFTISRDNAKNTVYLQMNSLTPEDTAVYYCAKVSQRRVDTSDYDYWGQGTQVTVSS,high polyreactivity
2,QVQLVESGGGLVQAGGSLRLSCAASGSTFVSYAMGWYRQAPGKERDFVAAITWSGGSTYYADSVKGRFTISRDNAKNTVYLQMNSLKPEDTAVYYCNARTGRSPTGFRYWGQGTQVTVSS,high polyreactivity
3,QVQLVESGGGLVQAGGSLRLSCAASGSIFFYYAMGWYRQAPGKERELVAAITSSGDSTYYADSVKGRFTISRDNAKNTVYLQMNSLKPEDTAVYYCAALYIGYTGYYYWGQGTQVSVSS,low polyreactivity
4,QVQLVESGGGLVQAGGSLRLSCAASGFTFDNYAMGWYRQAPGKERELVAAINWSGGRTYYADSVKGRFTISRDNAKNTVYLQMNSLKPEDTAVYYCAVPGYVRMDYWGQGTQVTVSS,high polyreactivity
5,QVQLVESGGGLVQAGGSLRLSCAASGFTFYNYAMGWYRQAPGKERELVAAITSSGTSTYYADSVKGRFTISRDNAKNTVYLQMNSLKPEDTAVYYCNAVSSYSYSYDYWGQGTQVTVSS,low polyreactivity
6,QVQLVESGGGLVQAGGSLRLSCAASGITFSRNAMGWYRQAPGKERELVAVISTRGGRTYYADSVKGRFTISRDNAKNTVYLQMISLKPEDTAVYYCAASPDPYWRRMDYWGQGTQVTVSS,high polyreactivity
7,QVQHVESGGGLVQAGGSLRLSCAASGRIFSYYAMGWYRQAPGKERELVAVISRRGDNTYYADSVKGRFTISRDNAKKTVYLQMNSLKPEDTAVYYCAARFGYLTFYSSGYYWGQGTQVTVSS,high polyreactivity
8,QGQLVESGGGLVQAGGSLRLSCAASGSIIRSYAMGWYRQAPGKERELVASISRRGGSTYYADSVKGRFTISRDNAKNTVYLQMNSLKPEDTAVYYCAAVRYNSRVSTTPSEMYYWGQGTQVTVSS,low polyreactivity
9,QVQLVESGGGLVQAGGSLRLSCAASGRTDYRYAMGWYRQAPGKERELVAAISRSGGRTYYADSVKGRFTISRDNAKNTVYLQMNSQKPEDTAVYYCASRGLGSGPVVEGDYWGQGTQVTVSS,high polyreactivity
10,QVQLVESGGGLVQAGGSLRLSCAASGLTFTLYTMGWYRQAPGKEREFVAVISGTGGRTYYADSVKGRFTISRDNAKNTVYLQMNSLKPEDTAVYYCATCYSFRYWGQGTQVTVSS,high polyreactivity
11,QVQLVESGGGLVQAGGSLRLSCAASGRTFYGYAMGWYRQAPGKERELVATISWSGGRTNYADSVKGRFTISRDNAKNTVYLQMNSLKPEDTAVYYCAAPYRLSKYDYWGQGTEVTVSS,high polyreactivity
12,QVQLVESAGGLVQAGGSLRLICAASGSNFRRYAMGWYRQAPGKERELVAAITENTTSTNYADSVKGRFTISRDNAKNTVYLQMNSLKPEDTAVYYCAAETFATSGEMYYWGQGTQVTVSS,low polyreactivity
13,QVQLVESGGGLVQAGGSLRLSCAASGFTAYGYAMGWYRQAPGQERELVAAISRSGGSTYYADSVKGRFTISRDNAKNTVYLQMYSLKPDDTAVYYCAVAVGREYVYRYYYWGQGTQVTVSS,high polyreactivity
14,QVHLVESGGGLVQAGGSLRLSCAASGRIFGEYAMGWYRQAPGKERELVAAINSCGTSTNYADSVKGRLTFSRDNAKNTVYLQMNSLKPEDTAVYYCNAVGTYRPEYDSWVQGTQVTVSS,low polyreactivity
15,QVQLVESGGGLVQAGGSLRFSCAASGRTFWSNAMGWYRQAPGKERDFVAVISRAGSTTYYADSVKGRFTISRDNAKNTVYLQMNSLIPEETAVYYCAADRVRSYFSRYYSTPLDYYWGQGTQVTVSS,high polyreactivity
16,QDQLVESGGGLVQAGGSLRIICAASGSIVVTNAMGWYRQAPGKVRELVAAMSGRADSTYADSVKGRFTISRDNAKNTVYLQMNSLKPEDTAVDYCAAKVRGWHYYYCGQGTQVTVSS,low polyreactivity
17,QVQLVESGGGLVQAGGSLRLSCAASGLIFRYYAMGWYSKAPGKERELVAVINYSGGRTYYADSVKGRFTISRDNAKNTVYLQMNSLKPEDTAVYYCAASFASKYEYWGQGTQVTVSS,high polyreactivity
18,QVQLVESGGGLVQAGGSLRLSCAASGSTLGYYAMGWYRQAPGKERELVATITRSGGNTYYADSVKGRFTISRDNAKNTVYLQMNSLKPEDTAVYYCAARRLYGSQRGYWGQGTQVTVSS,high polyreactivity
19,QVQLVESGGGLVQAGGSLRLSCAASGYIFRHYAMGWYRQAPGKERELVAAISGRGGSTYYADSVKGRFTISRDNAKNTVYLQMNSLKPEDTAVYYCAKDRKAVGDFYYWGQGTQVTVSS,high polyreactivity
20,QVQLVESCGGLVQAVGSLRLSCAASGIIIGYNAIGWYILAPGKEREFVAAISGYGGSTRYADSVKGRFTISRDYGKNSVYLQMNSLKPEDTAVYYCAARSRYCYITFDYWGQGTQVTVSS,high polyreactivity
